Source: patent US20060234294A1 (JAPAN SCIENCE AND TECHNOLOGY AGENCY, published 2006)

Key:
Assay in all cases: co-immunoprecipitation from 293T cells: anti-HA IP, anti-V5 Western blot
[1] = biological target: T1, Tiam1 with HA tag at its C terminus (PCI Tiam1-HA) (mouse, UniProt Q60610 1-1591, limits assumed)
T1 construct: Expressed in 293T cells from the PCI vector; also called mouse Tiam1

[2] = biological target: T2, full length DOCK2 with HA tag at the C terminus (PcDNA DOCK2-HA) (mouse, UniProt Q8C3J5 1-1828)
T2 construct: Expressed in 293T cells from PcDNA/His max vector and tested in cell lysate by co-immunoprecipitation; also called Hch; mouse DOCK2

[3] = biological target: T3, DOCK2ΔN-HA (amino acid residue 505-1828 of DOCK2, HA tag at the C terminus) (mouse, UniProt Q8C3J5 505-1828)
T3 construct: Expressed in 293T cells; also called PcDNA DOCK2ΔN-HA

DOCK2 SH3 mutant P60E-HA = biological target: T4, DOCK2 SH3 mutant P60E-HA (mouse, UniProt Q8C3J5 1-1828)
T4 construct: Proline at position 60 of DOCK2 is substituted to glutamic acid; HA tag at the C terminus; Expressed in 293T cells; also called PcDNA P60E-HA

DOCK2 SH3 mutant G32E-HA = biological target: T5, DOCK2 SH3 mutant G32E-HA (mouse, UniProt Q8C3J5 1-1828)
T5 construct: Glycine at position 32 of DOCK2 is substituted to glutamic acid; HA tag at the C terminus; Expressed in 293T cells; also called PcDNA G32E-HA

DOCK2 SH3 mutant F63E-HA = biological target: T6, DOCK2 SH3 mutant F63E-HA (mouse, UniProt Q8C3J5 1-1828)
T6 construct: Phenylalanine at position 63 of DOCK2 is substituted to glutamic acid; HA tag at the C terminus; Expressed in 293T cells; also called PcDNA F63E-HA
T6 sequence (Q8C3J5 other isoform, or with tags, fused parts or gaps F63E F63E limits assumed): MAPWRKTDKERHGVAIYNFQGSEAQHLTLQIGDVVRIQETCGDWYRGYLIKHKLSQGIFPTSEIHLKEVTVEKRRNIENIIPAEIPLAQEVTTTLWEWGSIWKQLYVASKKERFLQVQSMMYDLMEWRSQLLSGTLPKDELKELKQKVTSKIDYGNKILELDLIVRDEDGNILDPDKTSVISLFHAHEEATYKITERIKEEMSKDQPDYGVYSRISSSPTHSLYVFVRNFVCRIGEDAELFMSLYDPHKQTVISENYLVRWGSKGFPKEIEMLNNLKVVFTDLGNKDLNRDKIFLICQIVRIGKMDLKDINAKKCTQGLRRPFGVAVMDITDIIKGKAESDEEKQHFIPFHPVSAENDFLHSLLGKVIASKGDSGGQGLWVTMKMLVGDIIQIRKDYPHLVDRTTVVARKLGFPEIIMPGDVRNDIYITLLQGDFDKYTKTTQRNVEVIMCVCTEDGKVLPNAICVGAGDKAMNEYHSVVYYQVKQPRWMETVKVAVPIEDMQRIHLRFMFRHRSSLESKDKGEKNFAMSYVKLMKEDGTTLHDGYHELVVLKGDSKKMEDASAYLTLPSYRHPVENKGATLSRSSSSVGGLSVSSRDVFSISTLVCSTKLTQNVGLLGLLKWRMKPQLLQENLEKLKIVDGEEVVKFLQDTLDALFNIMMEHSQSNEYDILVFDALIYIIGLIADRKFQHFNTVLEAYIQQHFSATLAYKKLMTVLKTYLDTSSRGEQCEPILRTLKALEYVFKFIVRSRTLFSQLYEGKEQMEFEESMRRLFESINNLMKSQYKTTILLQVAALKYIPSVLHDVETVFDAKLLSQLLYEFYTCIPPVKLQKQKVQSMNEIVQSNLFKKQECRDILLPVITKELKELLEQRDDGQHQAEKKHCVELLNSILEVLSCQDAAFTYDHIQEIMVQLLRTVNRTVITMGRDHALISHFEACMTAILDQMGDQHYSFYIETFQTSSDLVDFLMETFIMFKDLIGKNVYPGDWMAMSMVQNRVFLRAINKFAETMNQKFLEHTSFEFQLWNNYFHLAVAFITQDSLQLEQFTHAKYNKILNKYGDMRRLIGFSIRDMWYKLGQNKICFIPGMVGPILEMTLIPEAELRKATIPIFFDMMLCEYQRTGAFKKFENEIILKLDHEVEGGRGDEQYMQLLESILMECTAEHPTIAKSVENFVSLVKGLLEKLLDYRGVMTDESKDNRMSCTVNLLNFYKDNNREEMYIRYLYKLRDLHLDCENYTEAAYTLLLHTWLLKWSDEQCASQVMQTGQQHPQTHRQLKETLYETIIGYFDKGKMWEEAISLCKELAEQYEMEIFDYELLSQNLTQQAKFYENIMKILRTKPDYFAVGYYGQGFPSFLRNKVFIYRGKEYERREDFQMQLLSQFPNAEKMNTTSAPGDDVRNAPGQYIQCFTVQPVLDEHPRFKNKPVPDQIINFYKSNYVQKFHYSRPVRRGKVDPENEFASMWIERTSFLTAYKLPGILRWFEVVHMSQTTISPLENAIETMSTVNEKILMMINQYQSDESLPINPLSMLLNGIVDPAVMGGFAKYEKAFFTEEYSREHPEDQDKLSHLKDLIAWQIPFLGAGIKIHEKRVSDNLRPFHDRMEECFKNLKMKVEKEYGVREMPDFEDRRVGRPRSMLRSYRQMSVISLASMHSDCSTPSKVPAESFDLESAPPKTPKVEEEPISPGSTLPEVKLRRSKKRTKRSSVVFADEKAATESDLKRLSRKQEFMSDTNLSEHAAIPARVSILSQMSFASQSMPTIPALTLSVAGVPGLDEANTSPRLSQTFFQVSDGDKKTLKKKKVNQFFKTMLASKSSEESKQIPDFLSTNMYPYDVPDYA

T1 sequence (Q60610 other isoform, or with tags, fused parts or gaps limits assumed): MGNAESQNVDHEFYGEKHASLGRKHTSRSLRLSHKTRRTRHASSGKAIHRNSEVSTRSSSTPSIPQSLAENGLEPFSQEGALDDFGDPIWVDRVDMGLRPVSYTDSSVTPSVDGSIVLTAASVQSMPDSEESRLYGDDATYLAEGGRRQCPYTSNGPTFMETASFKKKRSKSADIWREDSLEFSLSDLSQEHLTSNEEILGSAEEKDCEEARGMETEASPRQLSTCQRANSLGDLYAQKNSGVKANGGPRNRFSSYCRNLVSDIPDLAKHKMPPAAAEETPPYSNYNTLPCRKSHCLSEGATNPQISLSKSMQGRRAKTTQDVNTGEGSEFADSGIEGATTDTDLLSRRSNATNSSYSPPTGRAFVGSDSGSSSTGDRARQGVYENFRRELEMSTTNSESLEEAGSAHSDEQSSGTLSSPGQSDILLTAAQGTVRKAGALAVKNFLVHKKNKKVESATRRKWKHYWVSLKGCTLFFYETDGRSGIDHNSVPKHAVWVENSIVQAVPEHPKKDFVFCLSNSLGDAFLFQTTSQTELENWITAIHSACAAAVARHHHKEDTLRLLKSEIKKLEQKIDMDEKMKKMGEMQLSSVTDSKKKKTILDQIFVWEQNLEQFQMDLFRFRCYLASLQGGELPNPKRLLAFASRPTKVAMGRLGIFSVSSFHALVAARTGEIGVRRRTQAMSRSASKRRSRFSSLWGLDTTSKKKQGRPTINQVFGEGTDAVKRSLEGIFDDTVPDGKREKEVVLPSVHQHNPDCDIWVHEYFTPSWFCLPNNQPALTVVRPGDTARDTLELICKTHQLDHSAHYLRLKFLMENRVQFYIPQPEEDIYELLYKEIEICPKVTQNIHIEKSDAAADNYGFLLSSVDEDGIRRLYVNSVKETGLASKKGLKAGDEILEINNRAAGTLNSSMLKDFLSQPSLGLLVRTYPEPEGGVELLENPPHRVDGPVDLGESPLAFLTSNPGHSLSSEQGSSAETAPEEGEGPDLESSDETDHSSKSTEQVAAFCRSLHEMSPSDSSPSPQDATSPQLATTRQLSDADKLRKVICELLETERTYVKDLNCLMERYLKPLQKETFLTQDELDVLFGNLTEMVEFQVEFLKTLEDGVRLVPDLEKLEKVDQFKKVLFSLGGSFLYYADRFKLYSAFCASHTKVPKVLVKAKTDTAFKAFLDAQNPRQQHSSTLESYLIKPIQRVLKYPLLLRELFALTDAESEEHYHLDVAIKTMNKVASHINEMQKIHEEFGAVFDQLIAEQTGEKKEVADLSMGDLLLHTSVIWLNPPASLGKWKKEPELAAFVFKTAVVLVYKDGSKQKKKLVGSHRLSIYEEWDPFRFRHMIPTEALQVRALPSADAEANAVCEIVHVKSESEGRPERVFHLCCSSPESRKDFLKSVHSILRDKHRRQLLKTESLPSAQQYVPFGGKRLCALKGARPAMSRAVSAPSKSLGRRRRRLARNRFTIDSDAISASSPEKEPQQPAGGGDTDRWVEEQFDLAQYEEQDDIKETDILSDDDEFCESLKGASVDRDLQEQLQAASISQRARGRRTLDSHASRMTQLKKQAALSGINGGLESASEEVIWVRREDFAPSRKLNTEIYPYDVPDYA
T4 sequence (Q8C3J5 other isoform, or with tags, fused parts or gaps P60E P60E limits assumed): as the sequence (Q8C3J5 other isoform, or with tags, fused parts or gaps F63E F63E limits assumed) above, with P60E, E63F counted along it
T2 sequence (Q8C3J5 other isoform, or with tags, fused parts or gaps limits assumed): as the sequence (Q8C3J5 other isoform, or with tags, fused parts or gaps F63E F63E limits assumed) above, with E63F counted along it
T5 sequence (Q8C3J5 other isoform, or with tags, fused parts or gaps G32E G32E limits assumed): as the sequence (Q8C3J5 other isoform, or with tags, fused parts or gaps F63E F63E limits assumed) above, with G32E, E63F counted along it
T3 sequence (Q8C3J5 other isoform, or with tags, fused parts or gaps mutant): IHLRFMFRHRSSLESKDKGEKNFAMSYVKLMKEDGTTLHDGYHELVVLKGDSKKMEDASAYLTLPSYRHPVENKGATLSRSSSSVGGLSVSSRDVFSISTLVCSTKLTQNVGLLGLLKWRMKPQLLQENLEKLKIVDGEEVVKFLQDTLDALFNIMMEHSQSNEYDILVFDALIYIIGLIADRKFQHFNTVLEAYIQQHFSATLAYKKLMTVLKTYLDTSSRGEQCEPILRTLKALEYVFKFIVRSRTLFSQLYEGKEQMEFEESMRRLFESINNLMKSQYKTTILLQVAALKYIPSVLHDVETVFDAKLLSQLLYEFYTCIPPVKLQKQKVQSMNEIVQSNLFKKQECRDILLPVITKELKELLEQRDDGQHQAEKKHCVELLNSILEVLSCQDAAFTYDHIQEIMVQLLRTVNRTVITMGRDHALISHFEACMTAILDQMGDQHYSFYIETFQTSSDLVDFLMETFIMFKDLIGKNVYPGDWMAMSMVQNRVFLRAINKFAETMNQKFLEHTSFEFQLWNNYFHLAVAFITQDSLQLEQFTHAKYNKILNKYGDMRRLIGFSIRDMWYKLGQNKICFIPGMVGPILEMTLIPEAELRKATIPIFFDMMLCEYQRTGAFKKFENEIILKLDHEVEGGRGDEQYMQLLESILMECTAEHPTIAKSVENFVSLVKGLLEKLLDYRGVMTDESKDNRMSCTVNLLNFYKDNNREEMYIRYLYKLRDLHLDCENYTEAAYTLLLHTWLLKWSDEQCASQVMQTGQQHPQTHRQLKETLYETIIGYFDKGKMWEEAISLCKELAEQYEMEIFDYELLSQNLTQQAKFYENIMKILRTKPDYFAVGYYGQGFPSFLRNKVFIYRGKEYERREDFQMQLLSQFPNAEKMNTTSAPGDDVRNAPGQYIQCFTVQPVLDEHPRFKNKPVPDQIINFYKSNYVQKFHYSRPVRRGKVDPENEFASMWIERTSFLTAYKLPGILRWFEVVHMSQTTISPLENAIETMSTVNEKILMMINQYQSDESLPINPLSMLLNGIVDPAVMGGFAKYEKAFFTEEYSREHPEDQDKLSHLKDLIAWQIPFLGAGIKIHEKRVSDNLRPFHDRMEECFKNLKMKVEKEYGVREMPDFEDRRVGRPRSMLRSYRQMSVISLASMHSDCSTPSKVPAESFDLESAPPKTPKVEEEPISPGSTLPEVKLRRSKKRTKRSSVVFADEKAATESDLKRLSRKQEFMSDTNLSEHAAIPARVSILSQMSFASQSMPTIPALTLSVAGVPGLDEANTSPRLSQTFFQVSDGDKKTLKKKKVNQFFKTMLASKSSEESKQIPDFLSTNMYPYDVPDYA

B1: ELMO1-del1-V5 (amino acid residues 147-727 of ELMO1) (other)
chain: MKPCFGDMLSFTLTAFVELMDHGIVSWDTFSVAFIKKIASFVNKSAIDISILQRSLAILESMVLNSHDLYQKVAQEITIGQLIPHLQGTDQEIQTYTIAVINALFLKAPDERRQEMANILAQKQLRYIILTHVIRAQRAINNEMAHQLYVLQVLTFNLLEDRMMTKMDPQDQAQRDIIFELRRIAFDAESEPNNSSGSMEKRKSMYTRDYKKLGFINHVNPAMDFTQTPPGMLALDNMLYFAKHHQDAYIRIVLENSSREDKHECPFGRSSIELTKMLCEILKVGELPSETCNDFHPMFFTHDRSFEEFFCICIQLLNKTWKEMRATSEDFNKVMQVVKEQVMRALTTKPSSLDQFKSKLQNLSYTEILKIRQSERMNQEDFQSRPILELKEKIQPEILELIKQQRLNRLVEGTCFRKLNARRRQDKFWYCRLSPNHKVLHYGDLEESPQGEVPHDSLQDKLPVADIKAVVTGKDCPHMKEKGALKQNKEVLELAFSILYDSNCQLNFIAPDKHEYCIWTDGLNALLGKDMMSDLTRNDLDTLLSMEIKLRLLDLENIQIPDAPPPIPKEPSNYDFVYDCN
notes: Expressed in 293T cells; also called ELMO1-dell; PcDNA ELMO1-del1-V5; not shown: V5 (and His) tag from the PcDNA V5His vector
- binding result [1]: no binding

B2: ELMO1-del10-V5 (amino acid residues 1-613 of ELMO1) (other)
chain: MPPPSDIVKVAIEWPGAYPKLMEIDQKKPLSAIIKEVCDGWSLANHEYFALQHADSSNFYITEKNRNEIKNGTILRLTTSPAQNAQQLHERIQSSSMDAKLEALKDLASLSRDVTFAQEFINLDGISLLTQMVESGTERYQKLQKIMKPCFGDMLSFTLTAFVELMDHGIVSWDTFSVAFIKKIASFVNKSAIDISILQRSLAILESMVLNSHDLYQKVAQEITIGQLIPHLQGTDQEIQTYTIAVINALFLKAPDERRQEMANILAQKQLRYIILTHVIRAQRAINNEMAHQLYVLQVLTFNLLEDRMMTKMDPQDQAQRDIIFELRRIAFDAESEPNNSSGSMEKRKSMYTRDYKKLGFINHVNPAMDFTQTPPGMLALDNMLYFAKHHQDAYIRIVLENSSREDKHECPFGRSSIELTKMLCEILKVGELPSETCNDFHPMFFTHDRSFEEFFCICIQLLNKTWKEMRATSEDFNKVMQVVKEQVMRALTTKPSSLDQFKSKLQNLSYTEILKIRQSERMNQEDFQSRPILELKEKIQPEILELIKQQRLNRLVEGTCFRKLNARRRQDKFWYCRLSPNHKVLHYGDLEESPQGEVPHDSLQDKLPVADI
notes: Expressed in 293T cells; also called PcDNA ELMO1-del10-V5; PcDNA ELMO1-del10; not shown: V5 (and His) tag from the PcDNA V5His vector
- binding result [2]: no binding

B3: ELMO1-del8-V5 (amino acid residues 345-727 of ELMO1) (other)
chain: MEKRKSMYTRDYKKLGFINHVNPAMDFTQTPPGMLALDNMLYFAKHHQDAYIRIVLENSSREDKHECPFGRSSIELTKMLCEILKVGELPSETCNDFHPMFFTHDRSFEEFFCICIQLLNKTWKEMRATSEDFNKVMQVVKEQVMRALTTKPSSLDQFKSKLQNLSYTEILKIRQSERMNQEDFQSRPILELKEKIQPEILELIKQQRLNRLVEGTCFRKLNARRRQDKFWYCRLSPNHKVLHYGDLEESPQGEVPHDSLQDKLPVADIKAVVTGKDCPHMKEKGALKQNKEVLELAFSILYDSNCQLNFIAPDKHEYCIWTDGLNALLGKDMMSDLTRNDLDTLLSMEIKLRLLDLENIQIPDAPPPIPKEPSNYDFVYDCN
notes: Expressed in 293T cells; also called PcDNA ELMO1-del8-V5; not shown: V5 (and His) tag from the PcDNA V5His vector
- binding result [1]: no binding

B4: full length ELMO1 with V5 tag (PcDNA ELMO1-V5) (other)
chain: MPPPSDIVKVAIEWPGAYPKLMEIDQKKPLSAIIKEVCDGWSLANHEYFALQHADSSNFYITEKNRNEIKNGTILRLTTSPAQNAQQLHERIQSSSMDAKLEALKDLASLSRDVTFAQEFINLDGISLLTQMVESGTERYQKLQKIMKPCFGDMLSFTLTAFVELMDHGIVSWDTFSVAFIKKIASFVNKSAIDISILQRSLAILESMVLNSHDLYQKVAQEITIGQLIPHLQGTDQEIQTYTIAVINALFLKAPDERRQEMANILAQKQLRYIILTHVIRAQRAINNEMAHQLYVLQVLTFNLLEDRMMTKMDPQDQAQRDIIFELRRIAFDAESEPNNSSGSMEKRKSMYTRDYKKLGFINHVNPAMDFTQTPPGMLALDNMLYFAKHHQDAYIRIVLENSSREDKHECPFGRSSIELTKMLCEILKVGELPSETCNDFHPMFFTHDRSFEEFFCICIQLLNKTWKEMRATSEDFNKVMQVVKEQVMRALTTKPSSLDQFKSKLQNLSYTEILKIRQSERMNQEDFQSRPILELKEKIQPEILELIKQQRLNRLVEGTCFRKLNARRRQDKFWYCRLSPNHKVLHYGDLEESPQGEVPHDSLQDKLPVADIKAVVTGKDCPHMKEKGALKQNKEVLELAFSILYDSNCQLNFIAPDKHEYCIWTDGLNALLGKDMMSDLTRNDLDTLLSMEIKLRLLDLENIQIPDAPPPIPKEPSNYDFVYDCN
notes: Expressed in 293T cells; also called mouse ELMO1; not shown: V5 (and His) tag from the PcDNA V5-His vector
- binding result [3]: no binding
- binding result (DOCK2 SH3 mutant P60E-HA): no binding
- binding result (DOCK2 SH3 mutant G32E-HA): no binding
- binding result (DOCK2 SH3 mutant F63E-HA): no binding
